Consider 91 sequences from the supplement of paper PMC9112550, “Optimization of the antimicrobial peptide Bac7 by deep mutational scanning” (BMC Biology, 2022).

The data set concerns Escherichia coli TOP10. As to the kind of experiment: shrunken log2 fold change of peptide-encoding DNA abundance (4.5 h post-induction vs induction); higher = less antimicrobial activity (less host growth inhibition). Conditions: time post-induction: 4.5 h; library: site-saturation at positions 5, 18, 19, 20.
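Note: peptides expressed intracellularly from a pBAD plasmid library in pooled LB shake-flask culture, induced with 0.3% L-arabinose, DNA abundance read by NGS, three biological replicates, DESeq2 with apeglm shrinkage.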

Take RRIRRRPPRLPRPRPRPNETPRP: the “shrunken log2 fold change” value is -0.0619.

Turning to RRIRYRPPRLPRPRPRPQFSPRP, the “shrunken log2 fold change” value is 0.0125.

Consider RRIRTRPPRLPRPRPRPHSQPRP, for which the “shrunken log2 fold change” value was -0.101.

Consider RRIRWRPPRLPRPRPRPRFHPRP, for which the “shrunken log2 fold change” value was -0.293.

As to RRIRLRPPRLPRPRPRPWWVPRP, the “shrunken log2 fold change” value was determined as 0.0559.

Regarding RRIRTRPPRLPRPRPRPDTVPRP, the “shrunken log2 fold change” value was -0.0391.

For the sequence RRIRLRPPRLPRPRPRPWMTPRP, the “shrunken log2 fold change” value is -0.0262.

On to RRIRSRPPRLPRPRPRPPIKPRP, for which the “shrunken log2 fold change” value is -0.221.

As to RRIRVRPPRLPRPRPRPIHQPRP, the “shrunken log2 fold change” value is -0.166.

In the case of RRIRMRPPRLPRPRPRPGPRPRP, the “shrunken log2 fold change” value turned out to be 1.46.

With RRIRGRPPRLPRPRPRPSCCPRP, the “shrunken log2 fold change” value amounted to 0.722.

Consider RRIRNRPPRLPRPRPRPGKYPRP, for which the “shrunken log2 fold change” value is -0.117.

In the case of RRIRIRPPRLPRPRPRPFYEPRP, the “shrunken log2 fold change” value is -0.231.

As to RRIRWRPPRLPRPRPRPQFYPRP, the “shrunken log2 fold change” value is -0.492.

For RRIRTRPPRLPRPRPRPTFDPRP, the “shrunken log2 fold change” value was -0.0153.

For the sequence RRIRQRPPRLPRPRPRPQDSPRP, the “shrunken log2 fold change” value is -0.297.

Regarding RRIRMRPPRLPRPRPRPGWHPRP, the “shrunken log2 fold change” value was found to be 0.41.

For the sequence RRIRLRPPRLPRPRPRPCSPPRP, the “shrunken log2 fold change” value was -0.0527.

As to RRIRQRPPRLPRPRPRPKEHPRP, the “shrunken log2 fold change” value was -0.117.

As to RRIRARPPRLPRPRPRPNYKPRP, the “shrunken log2 fold change” value was -0.345.

With RRIRGRPPRLPRPRPRPQCDPRP, the “shrunken log2 fold change” value was found to be 0.479.

Regarding RRIRARPPRLPRPRPRPIDTPRP, the “shrunken log2 fold change” value worked out at 0.0213.

With RRIRDRPPRLPRPRPRPVDNPRP, the “shrunken log2 fold change” value came out at 0.0262.

Take RRIRCRPPRLPRPRPRPVISPRP: the “shrunken log2 fold change” value was -0.154.

On to RRIRDRPPRLPRPRPRPLPFPRP, for which the “shrunken log2 fold change” value was -0.398.

As for RRIRGRPPRLPRPRPRPRVLPRP, the “shrunken log2 fold change” value was 0.367.

As to RRIRHRPPRLPRPRPRPYHHPRP, the “shrunken log2 fold change” value was -0.607.

Take RRIRNRPPRLPRPRPRPGKKPRP: the “shrunken log2 fold change” value is -0.00783.

Turning to RRIRERPPRLPRPRPRPLKLPRP, the “shrunken log2 fold change” value is -0.118.

Regarding RRIRVRPPRLPRPRPRPFTDPRP, the “shrunken log2 fold change” value came to 0.0809.

As for RRIRYRPPRLPRPRPRPDQYPRP, the “shrunken log2 fold change” value was -0.292.

RRIRHRPPRLPRPRPRPIGIPRP: the “shrunken log2 fold change” value was 0.0295.

Regarding RRIRDRPPRLPRPRPRPKYDPRP, the “shrunken log2 fold change” value worked out at 0.0612.

As for RRIRKRPPRLPRPRPRPVVAPRP, the “shrunken log2 fold change” value was found to be 0.876.

In the case of RRIRFRPPRLPRPRPRPFNPPRP, the “shrunken log2 fold change” value was -0.733.

On to RRIRMRPPRLPRPRPRPFHMPRP, for which the “shrunken log2 fold change” value amounted to 0.105.

For RRIRQRPPRLPRPRPRPMSGPRP, the “shrunken log2 fold change” value is 0.076.

Turning to RRIRSRPPRLPRPRPRPKQAPRP, the “shrunken log2 fold change” value was -0.0378.

As for RRIRMRPPRLPRPRPRPGIQPRP, the “shrunken log2 fold change” value is -0.105.

Regarding RRIRPRPPRLPRPRPRPGTYPRP, the “shrunken log2 fold change” value is -0.147.

Take RRIRSRPPRLPRPRPRPWCGPRP: the “shrunken log2 fold change” value turned out to be 0.0715.

Take RRIRRRPPRLPRPRPRPQFVPRP: the “shrunken log2 fold change” value was determined as 0.153.

For the sequence RRIRLRPPRLPRPRPRPRATPRP, the “shrunken log2 fold change” value stood at 0.228.

As for RRIRKRPPRLPRPRPRPPQFPRP, the “shrunken log2 fold change” value is 0.127.

Turning to RRIRQRPPRLPRPRPRPFINPRP, the “shrunken log2 fold change” value is -0.241.

As for RRIRDRPPRLPRPRPRPIHQPRP, the “shrunken log2 fold change” value was -0.241.

As to RRIRPRPPRLPRPRPRPHKAPRP, the “shrunken log2 fold change” value turned out to be 0.0705.

With RRIRKRPPRLPRPRPRPTSKPRP, the “shrunken log2 fold change” value is 0.443.

For RRIRFRPPRLPRPRPRPRYAPRP, the “shrunken log2 fold change” value was 0.148.

On to RRIRMRPPRLPRPRPRPNKLPRP, for which the “shrunken log2 fold change” value is -0.145.

As to RRIRCRPPRLPRPRPRPSGIPRP, the “shrunken log2 fold change” value is -0.154.

RRIRSRPPRLPRPRPRPFQLPRP: the “shrunken log2 fold change” value is -0.0513.

Turning to RRIRARPPRLPRPRPRPVVRPRP, the “shrunken log2 fold change” value stood at 0.481.

Turning to RRIRNRPPRLPRPRPRPPSVPRP, the “shrunken log2 fold change” value is 0.0886.

Consider RRIRTRPPRLPRPRPRPGELPRP, for which the “shrunken log2 fold change” value is -0.108.

For RRIRQRPPRLPRPRPRPFGVPRP, the “shrunken log2 fold change” value is 0.0831.

Consider RRIRNRPPRLPRPRPRPNDVPRP, for which the “shrunken log2 fold change” value is -0.00503.

In the case of RRIRWRPPRLPRPRPRPEGMPRP, the “shrunken log2 fold change” value stood at 0.999.

For RRIRNRPPRLPRPRPRPGMPPRP, the “shrunken log2 fold change” value is -0.107.

For RRIRMRPPRLPRPRPRPYQCPRP, the “shrunken log2 fold change” value is -0.118.

As for RRIRTRPPRLPRPRPRPPTHPRP, the “shrunken log2 fold change” value is 0.176.

Take RRIRSRPPRLPRPRPRPMTFPRP: the “shrunken log2 fold change” value is -0.202.

Regarding RRIRWRPPRLPRPRPRPQHKPRP, the “shrunken log2 fold change” value was -0.0725.

Take RRIRARPPRLPRPRPRPQQDPRP: the “shrunken log2 fold change” value is 0.108.

Turning to RRIRMRPPRLPRPRPRPSMNPRP, the “shrunken log2 fold change” value is -0.287.

In the case of RRIRNRPPRLPRPRPRPNFRPRP, the “shrunken log2 fold change” value stood at 0.0289.

Turning to RRIRMRPPRLPRPRPRPDNTPRP, the “shrunken log2 fold change” value is 0.28.

Regarding RRIRDRPPRLPRPRPRPIVFPRP, the “shrunken log2 fold change” value was -0.0706.

With RRIRWRPPRLPRPRPRPITRPRP, the “shrunken log2 fold change” value is -0.0637.

On to RRIRLRPPRLPRPRPRPNFQPRP, for which the “shrunken log2 fold change” value is -0.0242.

As to RRIRHRPPRLPRPRPRPTKSPRP, the “shrunken log2 fold change” value is -0.0287.

In the case of RRIRLRPPRLPRPRPRPKHSPRP, the “shrunken log2 fold change” value is -0.107.

With RRIRHRPPRLPRPRPRPTGYPRP, the “shrunken log2 fold change” value was -0.0185.

Take RRIRMRPPRLPRPRPRPIVCPRP: the “shrunken log2 fold change” value is -0.0438.

RRIRERPPRLPRPRPRPFDNPRP: the “shrunken log2 fold change” value was determined as 3.45.

Consider RRIRARPPRLPRPRPRPNNLPRP, for which the “shrunken log2 fold change” value is -0.561.

With RRIRARPPRLPRPRPRPTMNPRP, the “shrunken log2 fold change” value was found to be 0.0878.

For RRIRARPPRLPRPRPRPCCAPRP, the “shrunken log2 fold change” value is 0.774.

With RRIRLRPPRLPRPRPRPPRMPRP, the “shrunken log2 fold change” value came to 0.232.

For the sequence RRIRNRPPRLPRPRPRPGIHPRP, the “shrunken log2 fold change” value amounted to 0.0285.

Regarding RRIRIRPPRLPRPRPRPHKCPRP, the “shrunken log2 fold change” value is -0.639.

As to RRIRFRPPRLPRPRPRPKHRPRP, the “shrunken log2 fold change” value is -0.094.

With RRIRMRPPRLPRPRPRPVGRPRP, the “shrunken log2 fold change” value worked out at 0.724.

With RRIRERPPRLPRPRPRPDVCPRP, the “shrunken log2 fold change” value was -0.239.

With RRIRSRPPRLPRPRPRPPHNPRP, the “shrunken log2 fold change” value is -0.0338.

As to RRIRHRPPRLPRPRPRPIQMPRP, the “shrunken log2 fold change” value is -0.00723.

For the sequence RRIRYRPPRLPRPRPRPSQQPRP, the “shrunken log2 fold change” value came out at 0.102.

In the case of RRIRARPPRLPRPRPRPFLPPRP, the “shrunken log2 fold change” value is -0.379.

In the case of RRIRSRPPRLPRPRPRPPGVPRP, the “shrunken log2 fold change” value worked out at 0.293.

Consider RRIRNRPPRLPRPRPRPDPCPRP, for which the “shrunken log2 fold change” value is -0.145.

Turning to RRIRMRPPRLPRPRPRPLHGPRP, the “shrunken log2 fold change” value was found to be 0.108.
